Experimental data reported in patent US20180086837A1.

What was measured:
[1] = target: cynomolgus CXCR4 (cynomolgus) (UniProt Q28474); test: flow cytometry, transfected HEK293T cells; normalisation reference (column 10 nM)
hCXCR4-V196E (human) [2] = target: hCXCR4-V196E (human) (UniProt P61073); test: as above
[3] = target: cynomolgus CXCR4 (cynomolgus) (UniProt Q28474); test: flow cytometry, transfected HEK293T cells; normalisation reference (column 100 nM)
hCXCR4-V196E (human) [4] = target: hCXCR4-V196E (human) (UniProt P61073); test: as above

Measured: % binding relative to hCXCR4

cynomolgus CXCR4 (cynomolgus), sequence (Q28474 whole entry): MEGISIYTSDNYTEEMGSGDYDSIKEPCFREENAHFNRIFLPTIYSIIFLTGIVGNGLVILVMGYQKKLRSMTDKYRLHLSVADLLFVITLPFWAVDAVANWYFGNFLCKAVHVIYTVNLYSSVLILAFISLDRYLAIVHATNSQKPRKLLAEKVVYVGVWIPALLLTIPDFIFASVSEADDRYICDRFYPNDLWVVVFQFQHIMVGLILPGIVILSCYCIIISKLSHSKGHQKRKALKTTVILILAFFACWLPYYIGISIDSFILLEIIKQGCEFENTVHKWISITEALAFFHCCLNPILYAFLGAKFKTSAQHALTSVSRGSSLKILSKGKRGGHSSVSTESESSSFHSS
hCXCR4-V196E (human), sequence (P61073 whole entry V196E): as the sequence (Q28474 whole entry) above, with I24M, H35N, R38K, K146R, S176N, V196E counted along it

anti-CXCR4 monoclonal antibody 12G5 (R&D Systems, MAB170)
100%: all assays above
